# In US20160272683A1 (Novo Nordisk, published 2016):
# Numbered stars: 1 amine (or outer) side, 2 acyl side, 3 side chain; on linkers, the order of the positions; unused ones are H or OH. * marks the point of attachment. C20 diacid = O=C(O)CCCCCCCCCCCCCCCCCCC(=O)*; C18 diacid = O=C(O)CCCCCCCCCCCCCCCCC(=O)*; γGlu = O=C(O)[C@H](CCC(=O)[*:2])N[*:1]
# T1: human amylin receptor (human calcitonin receptor + human RAMP3) (human) (UniProt P30988)
# T1 sequence (looked up) 1: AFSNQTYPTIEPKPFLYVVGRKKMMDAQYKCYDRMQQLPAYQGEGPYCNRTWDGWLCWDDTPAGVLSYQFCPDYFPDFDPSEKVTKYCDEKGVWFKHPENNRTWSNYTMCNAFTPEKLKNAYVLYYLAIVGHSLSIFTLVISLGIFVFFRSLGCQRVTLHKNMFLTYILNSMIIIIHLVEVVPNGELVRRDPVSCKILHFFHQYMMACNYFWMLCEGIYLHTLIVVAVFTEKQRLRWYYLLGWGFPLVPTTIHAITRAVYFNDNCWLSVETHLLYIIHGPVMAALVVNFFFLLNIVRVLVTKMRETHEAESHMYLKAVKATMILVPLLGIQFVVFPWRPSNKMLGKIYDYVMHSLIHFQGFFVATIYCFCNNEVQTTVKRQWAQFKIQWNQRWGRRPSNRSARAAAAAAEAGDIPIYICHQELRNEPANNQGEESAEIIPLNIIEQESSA
# T1 sequence (looked up) 2: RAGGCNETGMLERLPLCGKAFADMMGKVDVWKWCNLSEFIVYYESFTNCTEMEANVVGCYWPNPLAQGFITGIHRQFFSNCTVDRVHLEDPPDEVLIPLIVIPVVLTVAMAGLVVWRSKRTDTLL
# B1: [N-terminal(C18 diacid-gGlu), des1, 4Q, 16Q, 30S, 31G]mimylin (peptide)
# peptide: {C18 diacid-γGlu}-ASQLSTAALGRLSAQLHELATLPRTETGSGSP-NH2
# SMILES: CC(C)C[C@H](NC(=O)[C@H](C)NC(=O)[C@H](C)NC(=O)[C@@H](NC(=O)[C@H](CO)NC(=O)[C@H](CC(C)C)NC(=O)[C@H](CCC(N)=O)NC(=O)[C@H](CO)NC(=O)[C@H](C)NC(=O)CC[C@H](NC(=O)CCCCCCCCCCCCCCCCC(=O)O)C(=O)O)[C@@H](C)O)C(=O)NCC(=O)N[C@@H](CCCNC(=N)N)C(=O)N[C@@H](CC(C)C)C(=O)N[C@@H](CO)C(=O)N[C@@H](C)C(=O)N[C@@H](CCC(N)=O)C(=O)N[C@@H](CC(C)C)C(=O)N[C@@H](Cc1c[nH]cn1)C(=O)N[C@@H](CCC(=O)O)C(=O)N[C@@H](CC(C)C)C(=O)N[C@@H](C)C(=O)N[C@H](C(=O)N[C@@H](CC(C)C)C(=O)N1CCC[C@H]1C(=O)N[C@@H](CCCNC(=N)N)C(=O)N[C@H](C(=O)N[C@@H](CCC(=O)O)C(=O)N[C@H](C(=O)NCC(=O)N[C@@H](CO)C(=O)NCC(=O)N[C@@H](CO)C(=O)N1CCC[C@H]1C(N)=O)[C@@H](C)O)[C@@H](C)O)[C@@H](C)O
# B2: [N-terminal(C20 diacid-gGlu), des1, 23Y, 30S, 31G, 34K, C-terminal(-)]mimylin (peptide)
# peptide: {C20 diacid-γGlu}-ASELSTAALGRLSAELHELATYPRTETGSGSPK-OH
# SMILES: CC(C)C[C@H](NC(=O)[C@H](C)NC(=O)[C@H](C)NC(=O)[C@@H](NC(=O)[C@H](CO)NC(=O)[C@H](CC(C)C)NC(=O)[C@H](CCC(=O)O)NC(=O)[C@H](CO)NC(=O)[C@H](C)NC(=O)CC[C@H](NC(=O)CCCCCCCCCCCCCCCCCCC(=O)O)C(=O)O)[C@@H](C)O)C(=O)NCC(=O)N[C@@H](CCCNC(=N)N)C(=O)N[C@@H](CC(C)C)C(=O)N[C@@H](CO)C(=O)N[C@@H](C)C(=O)N[C@@H](CCC(=O)O)C(=O)N[C@@H](CC(C)C)C(=O)N[C@@H](Cc1c[nH]cn1)C(=O)N[C@@H](CCC(=O)O)C(=O)N[C@@H](CC(C)C)C(=O)N[C@@H](C)C(=O)N[C@H](C(=O)N[C@@H](Cc1ccc(O)cc1)C(=O)N1CCC[C@H]1C(=O)N[C@@H](CCCNC(=N)N)C(=O)N[C@H](C(=O)N[C@@H](CCC(=O)O)C(=O)N[C@H](C(=O)NCC(=O)N[C@@H](CO)C(=O)NCC(=O)N[C@@H](CO)C(=O)N1CCC[C@H]1C(=O)N[C@@H](CCCCN)C(=O)O)[C@@H](C)O)[C@@H](C)O)[C@@H](C)O
# B3: [N-terminal(C18 diacid-gGlu), des1, 6T, 9V, 30S, 31G]mimylin (peptide)
# peptide: {C18 diacid-γGlu}-ASELTTAVLGRLSAELHELATLPRTETGSGSP-NH2
# SMILES: CC(C)C[C@H](NC(=O)[C@H](CCC(=O)O)NC(=O)[C@H](Cc1c[nH]cn1)NC(=O)[C@H](CC(C)C)NC(=O)[C@H](CCC(=O)O)NC(=O)[C@H](C)NC(=O)[C@H](CO)NC(=O)[C@H](CC(C)C)NC(=O)[C@H](CCCNC(=N)N)NC(=O)CNC(=O)[C@H](CC(C)C)NC(=O)[C@@H](NC(=O)[C@H](C)NC(=O)[C@@H](NC(=O)[C@@H](NC(=O)[C@H](CC(C)C)NC(=O)[C@H](CCC(=O)O)NC(=O)[C@H](CO)NC(=O)[C@H](C)NC(=O)CC[C@H](NC(=O)CCCCCCCCCCCCCCCCC(=O)O)C(=O)O)[C@@H](C)O)[C@@H](C)O)C(C)C)C(=O)N[C@@H](C)C(=O)N[C@H](C(=O)N[C@@H](CC(C)C)C(=O)N1CCC[C@H]1C(=O)N[C@@H](CCCNC(=N)N)C(=O)N[C@H](C(=O)N[C@@H](CCC(=O)O)C(=O)N[C@H](C(=O)NCC(=O)N[C@@H](CO)C(=O)NCC(=O)N[C@@H](CO)C(=O)N1CCC[C@H]1C(N)=O)[C@@H](C)O)[C@@H](C)O)[C@@H](C)O
# B4: [N-terminal(C20 diacid-gGlu), des1, 23Y, 30S, 31G, 34G, C-terminal(-)]mimylin (peptide)
# peptide: {C20 diacid-γGlu}-ASELSTAALGRLSAELHELATYPRTETGSGSPG-OH
# SMILES: CC(C)C[C@H](NC(=O)[C@H](C)NC(=O)[C@H](C)NC(=O)[C@@H](NC(=O)[C@H](CO)NC(=O)[C@H](CC(C)C)NC(=O)[C@H](CCC(=O)O)NC(=O)[C@H](CO)NC(=O)[C@H](C)NC(=O)CC[C@H](NC(=O)CCCCCCCCCCCCCCCCCCC(=O)O)C(=O)O)[C@@H](C)O)C(=O)NCC(=O)N[C@@H](CCCNC(=N)N)C(=O)N[C@@H](CC(C)C)C(=O)N[C@@H](CO)C(=O)N[C@@H](C)C(=O)N[C@@H](CCC(=O)O)C(=O)N[C@@H](CC(C)C)C(=O)N[C@@H](Cc1c[nH]cn1)C(=O)N[C@@H](CCC(=O)O)C(=O)N[C@@H](CC(C)C)C(=O)N[C@@H](C)C(=O)N[C@H](C(=O)N[C@@H](Cc1ccc(O)cc1)C(=O)N1CCC[C@H]1C(=O)N[C@@H](CCCNC(=N)N)C(=O)N[C@H](C(=O)N[C@@H](CCC(=O)O)C(=O)N[C@H](C(=O)NCC(=O)N[C@@H](CO)C(=O)NCC(=O)N[C@@H](CO)C(=O)N1CCC[C@H]1C(=O)NCC(=O)O)[C@@H](C)O)[C@@H](C)O)[C@@H](C)O
# B5: [N-terminal(C20 diacid-gGlu), des1, 9T, 21S, 23Y, 30S, 31G]mimylin (peptide)
# peptide: {C20 diacid-γGlu}-ASELSTATLGRLSAELHELSTYPRTETGSGSP-NH2
# SMILES: CC(C)C[C@H](NC(=O)[C@H](CCCNC(=N)N)NC(=O)CNC(=O)[C@H](CC(C)C)NC(=O)[C@@H](NC(=O)[C@H](C)NC(=O)[C@@H](NC(=O)[C@H](CO)NC(=O)[C@H](CC(C)C)NC(=O)[C@H](CCC(=O)O)NC(=O)[C@H](CO)NC(=O)[C@H](C)NC(=O)CC[C@H](NC(=O)CCCCCCCCCCCCCCCCCCC(=O)O)C(=O)O)[C@@H](C)O)[C@@H](C)O)C(=O)N[C@@H](CO)C(=O)N[C@@H](C)C(=O)N[C@@H](CCC(=O)O)C(=O)N[C@@H](CC(C)C)C(=O)N[C@@H](Cc1c[nH]cn1)C(=O)N[C@@H](CCC(=O)O)C(=O)N[C@@H](CC(C)C)C(=O)N[C@@H](CO)C(=O)N[C@H](C(=O)N[C@@H](Cc1ccc(O)cc1)C(=O)N1CCC[C@H]1C(=O)N[C@@H](CCCNC(=N)N)C(=O)N[C@H](C(=O)N[C@@H](CCC(=O)O)C(=O)N[C@H](C(=O)NCC(=O)N[C@@H](CO)C(=O)NCC(=O)N[C@@H](CO)C(=O)N1CCC[C@H]1C(N)=O)[C@@H](C)O)[C@@H](C)O)[C@@H](C)O
# B6: [N-terminal(C20 diacid-gGlu), des1, 12H, 25H, 30T, 31G, 32T]mimylin (peptide)
# peptide: {C20 diacid-γGlu}-ASELSTAALGHLSAELHELATLPHTETGTGTP-NH2
# SMILES: CC(C)C[C@H](NC(=O)[C@H](C)NC(=O)[C@H](C)NC(=O)[C@@H](NC(=O)[C@H](CO)NC(=O)[C@H](CC(C)C)NC(=O)[C@H](CCC(=O)O)NC(=O)[C@H](CO)NC(=O)[C@H](C)NC(=O)CC[C@H](NC(=O)CCCCCCCCCCCCCCCCCCC(=O)O)C(=O)O)[C@@H](C)O)C(=O)NCC(=O)N[C@@H](Cc1c[nH]cn1)C(=O)N[C@@H](CC(C)C)C(=O)N[C@@H](CO)C(=O)N[C@@H](C)C(=O)N[C@@H](CCC(=O)O)C(=O)N[C@@H](CC(C)C)C(=O)N[C@@H](Cc1c[nH]cn1)C(=O)N[C@@H](CCC(=O)O)C(=O)N[C@@H](CC(C)C)C(=O)N[C@@H](C)C(=O)N[C@H](C(=O)N[C@@H](CC(C)C)C(=O)N1CCC[C@H]1C(=O)N[C@@H](Cc1c[nH]cn1)C(=O)N[C@H](C(=O)N[C@@H](CCC(=O)O)C(=O)N[C@H](C(=O)NCC(=O)N[C@H](C(=O)NCC(=O)N[C@H](C(=O)N1CCC[C@H]1C(N)=O)[C@@H](C)O)[C@@H](C)O)[C@@H](C)O)[C@@H](C)O)[C@@H](C)O
# B7: [N-terminal(C20 diacid-gGlu), -1E, 1A, 23Y, 30S, 31G]mimylin (peptide)
# peptide: {C20 diacid-γGlu}-EAASELSTAALGRLSAELHELATYPRTETGSGSP-NH2
# SMILES: CC(C)C[C@H](NC(=O)[C@H](C)NC(=O)[C@H](C)NC(=O)[C@@H](NC(=O)[C@H](CO)NC(=O)[C@H](CC(C)C)NC(=O)[C@H](CCC(=O)O)NC(=O)[C@H](CO)NC(=O)[C@H](C)NC(=O)[C@H](C)NC(=O)[C@H](CCC(=O)O)NC(=O)CC[C@H](NC(=O)CCCCCCCCCCCCCCCCCCC(=O)O)C(=O)O)[C@@H](C)O)C(=O)NCC(=O)N[C@@H](CCCNC(=N)N)C(=O)N[C@@H](CC(C)C)C(=O)N[C@@H](CO)C(=O)N[C@@H](C)C(=O)N[C@@H](CCC(=O)O)C(=O)N[C@@H](CC(C)C)C(=O)N[C@@H](Cc1c[nH]cn1)C(=O)N[C@@H](CCC(=O)O)C(=O)N[C@@H](CC(C)C)C(=O)N[C@@H](C)C(=O)N[C@H](C(=O)N[C@@H](Cc1ccc(O)cc1)C(=O)N1CCC[C@H]1C(=O)N[C@@H](CCCNC(=N)N)C(=O)N[C@H](C(=O)N[C@@H](CCC(=O)O)C(=O)N[C@H](C(=O)NCC(=O)N[C@@H](CO)C(=O)NCC(=O)N[C@@H](CO)C(=O)N1CCC[C@H]1C(N)=O)[C@@H](C)O)[C@@H](C)O)[C@@H](C)O
# Molecular target: T1, human amylin receptor (human calcitonin receptor + human RAMP3) (human)
# Experiment: whole-cell competition vs 125I-rat amylin (Assay Va)
row,IC50,Binder
1,0.428 nM,B1
2,21 nM,B2
3,0.653 nM,B3
4,0.812 nM,"{C18 diacid-γGlu}-ASEVSTAVLGRLSAELHELATLPRTETGSGSP-NH2 [[N-terminal(C18 diacid-gGlu), des1, 5V, 9V, 30S, 31G]mimylin]"
5,0.652 nM,"{C18 diacid-γGlu}-ASELTTAVLGRLSAELHELATLPRTETGSGTP-NH2 [[N-terminal(C18 diacid-gGlu), des1, 6T, 9V, 30S, 31G, 32T]mimylin]"
6,92 nM,"{C20 diacid-γGlu}-ASELSTAALGRLSAELHELATYPRTETGSGSY-OH [[N-terminal(C20 diacid-gGlu), des1, 23Y, 30S, 31G, 33Y, C-terminal(-)]mimylin]"
7,2.15 nM,"{C18 diacid-γGlu}-ASELTTAVLGRLSAELHELATLPRTETGTGTP-NH2 [[N-terminal(C18 diacid-gGlu), des1, 6T, 9V, 30T, 31G, 32T]mimylin]"
8,7.26 nM,B4
9,2.61 nM,B5
10,1.51 nM,B6
11,1.92 nM,B7
